From patent publication US20260184815A1 (published 2026) come the findings set out here.

This assay addresses T1, human plasma kallikrein (human, UniProt P03952 20-390; P03952 391-638).
T1 construct: also called pKal; Human pKal
As to the kind of experiment: ELISA, biotinylated pKal signal over streptavidin background. From the text:
Abbreviations used: “T/B” is the ELISA signal obtained using of the “target” (biotinylated plasma kallikrein) divided by the ELISA signal of the “background” (streptavidin); both of which were coated on microtiter plates, “nd” is not determined. The symbol “q” refers to the amber suppressible stop codon (TAG), which is translated as glutamine (Q) in strains of E. coli such as the TG1 cells that were used to express the Fab fragments.
On the technique in general: An ELISA detects its analyte on a solid surface through an enzyme-linked reagent.

T1 sequence (P03952 20-390, chain 1 of 2): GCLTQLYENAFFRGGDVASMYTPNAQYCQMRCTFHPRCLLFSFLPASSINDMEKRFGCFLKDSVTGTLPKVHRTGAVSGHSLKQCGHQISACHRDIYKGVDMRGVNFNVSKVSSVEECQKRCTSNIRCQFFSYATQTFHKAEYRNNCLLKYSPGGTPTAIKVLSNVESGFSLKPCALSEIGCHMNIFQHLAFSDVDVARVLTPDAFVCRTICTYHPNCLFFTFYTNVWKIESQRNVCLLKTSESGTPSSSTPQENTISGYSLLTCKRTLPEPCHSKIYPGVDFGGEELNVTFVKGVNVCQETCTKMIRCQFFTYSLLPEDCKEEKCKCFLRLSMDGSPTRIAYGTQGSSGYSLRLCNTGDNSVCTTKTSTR
T1 sequence (P03952 391-638, chain 2 of 2): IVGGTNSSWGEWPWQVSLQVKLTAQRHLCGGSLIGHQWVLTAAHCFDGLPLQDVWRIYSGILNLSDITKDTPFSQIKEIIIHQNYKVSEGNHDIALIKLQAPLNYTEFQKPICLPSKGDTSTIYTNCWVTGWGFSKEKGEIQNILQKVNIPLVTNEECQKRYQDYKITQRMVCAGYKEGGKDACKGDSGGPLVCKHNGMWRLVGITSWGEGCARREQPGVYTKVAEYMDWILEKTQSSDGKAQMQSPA

B1: M110-C12 (Fab, V domains shown)
VH: EVQLLESGGGLVQPGGSLRLSCAASGFTFSYYEMDWVRQAPGKGLEWVSGISSSGGHTAYADSVKGRFTISRDNSKNTLYLQMNSLRAEDTATYYCARERRSSSRARYYYGMDVWGQGTTVTVSS
VL: DIQMTQSPLSLSVTPGEPASISCRSSLSLLHSNGYNYLDWYVQRPGQSPQLLMYLSSTRASGVPDRFSGSGSGTDFTLEISRVEAEDVGVYYCMQPLETPPTFGGGTKVEIK
notes: HC as printed runs into CH1
B1: the “ELISA (T/B)” value was determined as 2.4 T/B.

B2: M142-H08 (Fab) (Fab, V domains shown)
VH: EVQLLESGGGLVQPGGSLRLSCAASGFTFSAYSMIWVRQAPGKGLEWVSYIRPSGGRTTYADSVKGRFTISRDNSKNTLYLQMNSLRAEDTAVYYCARGGLLLWFRELKSNYFDYWGQGTLVTVSS
VL: DIQMTQSPSSLSAFVGDRVTITCRASQPIDNYLNWYHQKPGKAPKLLIYAASRLQSGVPSRLSGSGFGTDFTLTISSLQPEDFGNYYCQQSYTVPYTFGGGTKVEIR
notes: HC as printed runs into CH1
With B2, the “ELISA (T/B)” value turned out to be 29.9 T/B.

B3: M145-D01 (Fab, V domains shown)
VH: EVQLLESGGGLVQPGGSLRLSCAASGFTFSYYHMSWVRQAPGKGLEWVSVISPSGGSTKYADSVKGRFTISRDNSKNTLYLQMNSLRAEDTAVYYCARGGSSDYAWGSYRRPYYFDYWGQGTLVTVSS
VL: DIQMTQSPATLSLSPGERATLSCRASQSVSSYLAWYQQKPGQAPRLLIYDASNRATGIPARFSGSGSGTDFTLTISSLEPEDFAVYYCQQRSNWPRGFTFGPGTKVDIK
notes: HC as printed runs into CH1
With B3, the “ELISA (T/B)” value was determined as 6.2 T/B.

B4: M76-D01 (Fab, V domains shown)
VH: EVQLLESGGGLVQPGGSLRLSCAASGFTFSFYAMHWVRQAPGKGLEWVSGIVPSGGRTHYADSVKGRFTISRDNSKNTLYLQMNSLRAEDTAVYYCATDSSGSPNPLFDYWGQGTLVTVSS
VL: DIVMTQTPPSLPVNPGEPASISCRSSQSLSDDGNTYLDWYLQRPGQSPQLLIHTLSYRASGVPDRFSGSGSGTDFTLKISRVEAEDVGVYYCMQGTHWPPTFGQGTKVEIK
notes: HC as printed runs into CH1 (ends APSPKS as printed)
For B4, the “ELISA (T/B)” value is 11.2 T/B.

B5: M137-E12 (Fab, V domains shown)
VH: EVQLLESGGGLVQPGGSLRLSCAASGFTFSDYRMQWVRQAPGKGLEWVSVIVPSGGNTMYADSVKGRFTISRDNSKNTLYLQMNSLRAEDTAVYYCARGGPGSSIAARRAPTGYYGMDVWGQGTTVTVSS
VL: QSVLIQPPSVSGIPGQRVTISCSGNNSNFGSNTVTWYQQLPGTAPKLLIYSDSRRPSGVPDRFSGSRSDTSASLAISGLQSEDEAEYHCAAWDDSLNGVFGGGTKLTVL
notes: HC as printed runs into CH1
In the case of B5, the “ELISA (T/B)” value was 4.5 T/B.

B6: M41-A11 (Fab, V domains shown)
VH: EVQLLESGGGLVQPGGSLRLSCAASGFTFSHYRMSWVRQAPGKGLEWVSSIYPSGGRTVYADSVKGRFTISRDNSKNTLYLQMNSLRAEDTAVYYCAKDKFEWRLLFRGIGNDAFDIWGQGTMVTVSS
VL: QSVLTQPPSVSVSPGQTASITCSGDKLGDKYTSWYQQRPGQSPVLVIYQDIKRPSGIPERFSGSNSGNTATLTISGTQAMDEADYYCQAWDSPNARVFGSGTKVTVL
notes: HC as printed runs into CH1
For B6, the “ELISA (T/B)” value came out at 28 T/B.

B7: M145-D11 (Fab, V domains shown)
VH: B6 VH
VL: B6 VL
notes: HC as printed runs into CH1; also called 559A-M0145-D11
As for B7, the “ELISA (T/B)” value was found to be 40 T/B.

B8: M73-D06 (Fab, V domains shown)
VH: EVQLLESGGGLVQPGGSLRLSCAASGFTFSRYEMYWVRQAPGKGLEWVSSISSSGGPTAYADSVKGRFTISRDNSKNTLYLQMNSLRAEDTAMYYCAKGTPKWELLLRSIYIENAFDIWGQGTMVTVSS
VL: QSELTQPPSASETPGQRVTISCSGSSSNIGSNTVSWFQQLPGSAPRLLIYNDHRRPSGVPDRFSGSKSGTSASLVISGLQSQDEADYYCSAWDDSLNGVVFGGGTKLTVL
notes: HC as printed runs into CH1
For B8, the “ELISA (T/B)” value was 4 T/B.
